Each block holds one binder with its values, some of them ahead of it.
Experiments:
[1] = molecular target: T1, rHuman Notch-1/Fc Chimera, CF (R&D Systems Cat#3647-TK) (human, UniProt P46531 19-526); test: ECL (MSD Multi-Spot) binding assay, antigen spotted on plate; Fab 30 nM; blank spot 213
T1 construct: Bought Fc chimera; Fc part of the bought chimera not given

[2] = molecular target: T2, rHuman Erythropoietin R/Fc Chimera, CF (R&D Systems Cat#963-ER) (human, UniProt P19235 25-250); test: ECL (MSD multi-spot), antigen spotted on plate; Fab 22 nM; blank spot 289
T2 construct: Bought reagent; also called EPO R/Fc; Epo R; Fc part of the bought chimera not given
T2 sequence: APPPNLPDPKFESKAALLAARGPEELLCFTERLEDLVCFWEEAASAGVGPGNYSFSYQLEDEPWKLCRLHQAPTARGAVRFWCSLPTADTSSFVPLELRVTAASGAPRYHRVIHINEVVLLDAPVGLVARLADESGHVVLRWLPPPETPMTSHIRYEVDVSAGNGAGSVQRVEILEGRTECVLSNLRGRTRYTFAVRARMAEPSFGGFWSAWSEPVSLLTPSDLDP

[3] = molecular target: T3, Recombinant Human DLL4 (R&D Systems Cat#1506-D4/CF) (human, UniProt Q9NR61 27-524); test: as above
T3 construct: Bought reagent; also called delta-like protein 4

[4] = molecular target: T4, rHuman ErbB2/Fc Chimera, CF (R&D Systems Cat#1129-ER) (human, UniProt P04626 23-652); test: as above
T4 construct: Bought reagent; also called HER2/neu; human epidermal growth factor 2 receptor; Fc part of the bought chimera not given

[5] = molecular target: T5, rHuman EGF R/Fc Chimera, CF (R&D Systems Cat#344-ER) (human, UniProt P00533 25-645); test: as above
T5 construct: Bought reagent; also called epidermal growth factor receptor; Fc part of the bought chimera not given

[6] = molecular target: T6, rHuman HGF R/c-MET/Fc Chimera, CF (R&D Systems Cat#358-MT/CF) (human, UniProt P08581 25-932); test: as above
T6 construct: Bought reagent; also called HGF R/Fc; hepatocyte growth factor receptor; Fc part of the bought chimera not given

[7] = molecular target: T7, rHuman Notch-1/Fc Chimera, CF (R&D Systems Cat#3647-TK) (human, UniProt P46531 19-526); test: as above
T7 construct: Bought reagent; Fc part of the bought chimera not given

[8] = molecular target: T8, rHuman CD44/Fc Chimera, CF (R&D Systems Cat#3660-CD) (human, UniProt P16070 21-220); test: as above
T8 construct: Bought reagent; Fc part of the bought chimera not given

[9] = molecular target: T9, rHuman IGF-1 sR (IGF-1 sR), CF (R&D Systems Cat#391-GR) (human, UniProt P08069 31-932); test: as above
T9 construct: Bought soluble receptor; also called insulin-like growth factor-1 soluble receptor; IGF-R1

[10] = molecular target: T10, rHuman P-Cadherin/Fc Chimera, CF (R&D Systems Cat#861-PC) (human, UniProt P22223 108-654); test: as above
T10 construct: Bought reagent; also called CDH3; Fc part of the bought chimera not given

[11] = molecular target: T11, rHuman IGF-1 sR, (IGF-1 sR), CF (R&D Systems Cat#391-GR) (human, UniProt P08069 31-932); test: MSD ECL multi-spot plate; Fab 32.5 nM; blank spot 473
T11 construct: also called insulin-like growth factor-1 soluble receptor; IGF-R1

[12] = molecular target: T12, rHuman Erythropoietin R/Fc Chimera, CF (R&D Systems Cat#963-ER) (human, UniProt P19235 25-250); test: as above
T12 construct: also called EPO R/Fc; Epo R; Fc part of the bought chimera not given
T12 sequence: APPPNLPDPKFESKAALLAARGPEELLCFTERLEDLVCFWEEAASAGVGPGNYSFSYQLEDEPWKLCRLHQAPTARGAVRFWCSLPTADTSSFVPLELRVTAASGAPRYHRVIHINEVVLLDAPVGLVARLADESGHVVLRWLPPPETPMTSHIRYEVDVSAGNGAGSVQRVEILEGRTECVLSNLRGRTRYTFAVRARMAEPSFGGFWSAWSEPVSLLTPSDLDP

[13] = molecular target: T13, Recombinant Human DLL4 (R&D Systems Cat#1506-D4/CF) (human, UniProt Q9NR61 27-524); test: as above
T13 construct: also called delta-like protein 4

[14] = molecular target: T14, rHuman ErbB2/Fc Chimera, CF (R&D Systems Cat#1129-ER) (human, UniProt P04626 23-652); test: as above
T14 construct: also called HER2/neu; human epidermal growth factor 2 receptor; Fc part of the bought chimera not given

[15] = molecular target: T15, rHuman EGF R/Fc Chimera, CF (R&D Systems Cat#344-ER) (human, UniProt P00533 25-645); test: as above
T15 construct: also called epidermal growth factor receptor; Fc part of the bought chimera not given

[16] = molecular target: T16, rHuman HGF R/c-MET/Fc Chimera, CF (R&D Systems Cat#358-MT/CF) (human, UniProt P08581 25-932); test: as above
T16 construct: also called HGF R/Fc; hepatocyte growth factor receptor; Fc part of the bought chimera not given

[17] = molecular target: T17, rHuman Notch-1/Fc Chimera, CF (R&D Systems Cat#3647-TK) (human, UniProt P46531 19-526); test: as above
T17 construct: Fc part of the bought chimera not given

[18] = molecular target: T18, rHuman CD44/Fc Chimera, CF (R&D Systems Cat#3660-CD) (human, UniProt P16070 21-220); test: as above
T18 construct: Fc part of the bought chimera not given
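Note: blank spot per well as comparator with Hit at signal to blank ratio of 4 or more.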

- ECL signal [1]: 425
B1: Fab VH6-1_IGHD3-3*01_IGHJ4*01 & V4-3_IGLJ4*01 (Fab, V domains shown)
VH: QVQLQQSGPGLVKPSQTLSLTCAISGDSVSSNSAAWNWIRQSPSRGLEWLGRTYYRSKWYNDYAVSVKSRITINPDTSKNQFSLQLNSVTPEDTAVYYCAREYYDFWSGYYTDYFDYWGQGTLVTVSS
VL: QPVLTQPTSLSASPGASARLTCTLRSGINLGSYRIFWYQQKPESPPRYLLSYYSDSSKHQGSGVPSRFSGSKDASSNAGILVISGLQSEDEADYYCMIWHSSASFVFGGGTQLIIL
notes: Tested as a Fab made in E. coli; also called IGHV6-1*01

- ECL signal [2]: 2240
- ECL signal [3]: 342
- ECL signal [4]: 363
- ECL signal [5]: 312
- ECL signal [6]: 203
- ECL signal [7]: 389
- ECL signal [8]: 317
- ECL signal [9]: 347
- ECL signal [10]: 215
B2: Fab VH1-46_IGHD3-10*01_IGHJ4*01 & B3_IGKJ1*01 (Fab, V domains shown)
VH: QVQLVQSGAEVKKPGASVKVSCKASGYTFTSYYMHWVRQAPGQGLEWMGIINPSGGSTSYAQKFQGRVTMTRDTSTSTVYMELSSLRSEDTAVYYCAREYYYGSGSYYNDYFDYWGQGTLVTVSS
VL: not shown
notes: also called IGHV1-46*01

- ECL signal [11]: 561 ECL signal
- ECL signal [12]: 673 ECL signal
- ECL signal [13]: 2990 ECL signal
- ECL signal [14]: 556 ECL signal
- ECL signal [15]: 645 ECL signal
- ECL signal [16]: 525 ECL signal
- ECL signal [17]: 706 ECL signal
- ECL signal [18]: 573 ECL signal
B3: Fab VH1-8_IGHD2-2*01_IGHJ6*01 & L12_IGKJ1*01 (Fab, V domains shown)
VH: QVQLVQSGAEVKKPGASVKVSCKASGYTFTSYDINWVRQATGQGLEWMGWMNPNSGNTGYAQKFQGRVTMTRNTSISTAYMELSSLRSEDTAVYYCARGGYCSSTSCYADYYYYYGMDVWGQGTTVTVSS
VL: not shown

From patent US20120058906A1 (published 2012)
